# Patent publication US20160136234A1
# How the values were obtained:
# Assay in all cases: cell-based or functional assay
# ASK1 (h) (human) = ASK1 (h) (human) (UniProt Q99683)
# CK1γ2 (h) (human) = CK1γ2 (h) (human) (UniProt P78368)
# DAPK2 (h) (human) = DAPK2 (h) (human) (UniProt Q9UIK4)
# EphA7 (h) (human) = EphA7 (h) (human) (UniProt Q15375)
# EphB2 (h) (human) = EphB2 (h) (human) (UniProt P29323)
# HIPK1 (h) (human) = HIPK1 (h) (human) (UniProt Q86Z02)
# Itk (h) (human) = biological target: T1, Itk (h) (human) (UniProt Q08881)
# T1 sequence (looked up): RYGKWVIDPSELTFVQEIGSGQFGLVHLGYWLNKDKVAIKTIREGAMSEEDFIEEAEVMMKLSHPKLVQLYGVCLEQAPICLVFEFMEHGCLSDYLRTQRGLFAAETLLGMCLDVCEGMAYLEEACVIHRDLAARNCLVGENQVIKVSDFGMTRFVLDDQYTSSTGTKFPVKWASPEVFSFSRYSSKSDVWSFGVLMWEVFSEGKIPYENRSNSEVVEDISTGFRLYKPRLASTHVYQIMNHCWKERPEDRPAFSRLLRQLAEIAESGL
# MLCK (h) (human) = biological target: MLCK (h) (human)
# Met (h) (human) = Met (h) (human) (UniProt P08581)
# Chain of Met (h) (human) (P08581 956-1390 limits assumed): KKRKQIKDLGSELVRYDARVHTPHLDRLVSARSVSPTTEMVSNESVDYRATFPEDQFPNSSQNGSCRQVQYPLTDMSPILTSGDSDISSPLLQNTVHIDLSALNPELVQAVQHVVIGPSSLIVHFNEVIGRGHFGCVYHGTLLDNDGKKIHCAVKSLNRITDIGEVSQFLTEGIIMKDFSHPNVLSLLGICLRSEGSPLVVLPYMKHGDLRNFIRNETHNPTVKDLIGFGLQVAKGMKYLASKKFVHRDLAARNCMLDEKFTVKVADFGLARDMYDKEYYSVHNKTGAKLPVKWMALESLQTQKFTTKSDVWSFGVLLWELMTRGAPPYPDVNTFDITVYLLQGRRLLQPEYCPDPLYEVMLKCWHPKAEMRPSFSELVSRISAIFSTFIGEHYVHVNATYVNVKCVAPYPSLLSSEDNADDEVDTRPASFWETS
# PKG1β (h) (human) = biological target: T2, PKG1β (h) (human) (UniProt Q13976)
# T2 sequence (looked up): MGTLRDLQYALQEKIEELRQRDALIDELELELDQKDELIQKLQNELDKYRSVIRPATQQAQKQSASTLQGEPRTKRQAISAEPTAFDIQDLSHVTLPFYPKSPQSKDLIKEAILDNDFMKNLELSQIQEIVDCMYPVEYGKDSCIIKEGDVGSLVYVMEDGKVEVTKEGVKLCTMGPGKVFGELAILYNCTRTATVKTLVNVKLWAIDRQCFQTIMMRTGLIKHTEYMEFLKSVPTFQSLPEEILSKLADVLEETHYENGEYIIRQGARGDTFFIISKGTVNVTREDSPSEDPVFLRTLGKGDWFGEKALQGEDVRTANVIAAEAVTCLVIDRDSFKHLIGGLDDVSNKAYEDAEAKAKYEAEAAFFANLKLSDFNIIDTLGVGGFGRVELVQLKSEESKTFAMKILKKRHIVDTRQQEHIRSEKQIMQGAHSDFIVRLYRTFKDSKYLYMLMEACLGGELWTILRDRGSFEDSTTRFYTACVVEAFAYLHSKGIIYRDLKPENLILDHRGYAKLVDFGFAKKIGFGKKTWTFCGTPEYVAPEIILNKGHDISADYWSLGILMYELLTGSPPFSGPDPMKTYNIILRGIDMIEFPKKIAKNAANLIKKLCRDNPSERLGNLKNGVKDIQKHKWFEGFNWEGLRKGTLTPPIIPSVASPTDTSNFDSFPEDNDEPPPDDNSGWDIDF
# PhKγ2 (h) (human) = biological target: T3, PhKγ2 (h) (human) (UniProt P15735)
# T3 sequence (looked up): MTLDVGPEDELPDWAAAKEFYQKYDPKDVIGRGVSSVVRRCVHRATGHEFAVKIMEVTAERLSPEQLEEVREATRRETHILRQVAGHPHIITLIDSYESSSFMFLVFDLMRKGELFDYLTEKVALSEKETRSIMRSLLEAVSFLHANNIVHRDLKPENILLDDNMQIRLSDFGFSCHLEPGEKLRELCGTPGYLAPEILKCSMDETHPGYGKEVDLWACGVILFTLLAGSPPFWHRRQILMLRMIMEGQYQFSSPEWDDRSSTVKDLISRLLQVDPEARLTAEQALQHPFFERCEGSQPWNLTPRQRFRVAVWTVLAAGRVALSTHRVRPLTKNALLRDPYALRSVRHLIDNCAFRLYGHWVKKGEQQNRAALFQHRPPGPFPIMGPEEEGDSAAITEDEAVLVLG
# SGK3 (h) (human) = biological target: T4, SGK3 (h) (human) (UniProt Q96BR1)
# T4 sequence (looked up): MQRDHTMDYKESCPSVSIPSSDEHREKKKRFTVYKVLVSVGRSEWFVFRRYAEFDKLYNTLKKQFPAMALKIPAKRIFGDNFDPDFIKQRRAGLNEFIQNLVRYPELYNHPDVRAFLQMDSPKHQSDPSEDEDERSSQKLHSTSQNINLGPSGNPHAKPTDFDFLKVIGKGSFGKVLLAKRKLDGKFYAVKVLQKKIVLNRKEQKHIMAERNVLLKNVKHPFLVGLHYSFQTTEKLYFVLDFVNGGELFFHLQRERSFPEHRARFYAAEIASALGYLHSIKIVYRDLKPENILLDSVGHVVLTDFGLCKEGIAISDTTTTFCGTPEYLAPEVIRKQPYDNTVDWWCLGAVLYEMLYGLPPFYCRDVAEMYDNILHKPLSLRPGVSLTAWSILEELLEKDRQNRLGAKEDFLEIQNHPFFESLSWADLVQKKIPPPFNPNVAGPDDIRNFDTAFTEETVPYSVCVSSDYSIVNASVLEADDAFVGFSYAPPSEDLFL
# [1] = biological target: T5, Tec (h) activated (human) (UniProt P42680)
# T5 sequence (looked up): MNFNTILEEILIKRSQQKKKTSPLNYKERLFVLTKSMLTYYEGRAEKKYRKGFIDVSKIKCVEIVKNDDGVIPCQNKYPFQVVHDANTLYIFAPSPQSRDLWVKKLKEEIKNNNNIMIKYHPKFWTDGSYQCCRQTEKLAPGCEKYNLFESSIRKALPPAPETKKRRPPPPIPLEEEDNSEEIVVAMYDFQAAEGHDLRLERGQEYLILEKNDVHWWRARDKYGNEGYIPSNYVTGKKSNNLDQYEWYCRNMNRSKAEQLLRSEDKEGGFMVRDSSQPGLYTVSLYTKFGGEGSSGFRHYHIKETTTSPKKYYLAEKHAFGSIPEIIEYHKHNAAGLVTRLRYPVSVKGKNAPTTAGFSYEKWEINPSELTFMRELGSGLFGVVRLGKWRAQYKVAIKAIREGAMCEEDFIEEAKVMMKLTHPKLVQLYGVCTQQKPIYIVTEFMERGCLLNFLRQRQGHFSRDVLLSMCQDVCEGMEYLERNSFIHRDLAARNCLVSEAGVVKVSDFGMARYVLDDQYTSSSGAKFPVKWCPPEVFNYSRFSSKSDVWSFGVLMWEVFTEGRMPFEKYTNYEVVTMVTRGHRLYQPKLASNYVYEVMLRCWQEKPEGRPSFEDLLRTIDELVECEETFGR
# Chain of EphB2 (h) (human) (P29323 565-986 limits assumed): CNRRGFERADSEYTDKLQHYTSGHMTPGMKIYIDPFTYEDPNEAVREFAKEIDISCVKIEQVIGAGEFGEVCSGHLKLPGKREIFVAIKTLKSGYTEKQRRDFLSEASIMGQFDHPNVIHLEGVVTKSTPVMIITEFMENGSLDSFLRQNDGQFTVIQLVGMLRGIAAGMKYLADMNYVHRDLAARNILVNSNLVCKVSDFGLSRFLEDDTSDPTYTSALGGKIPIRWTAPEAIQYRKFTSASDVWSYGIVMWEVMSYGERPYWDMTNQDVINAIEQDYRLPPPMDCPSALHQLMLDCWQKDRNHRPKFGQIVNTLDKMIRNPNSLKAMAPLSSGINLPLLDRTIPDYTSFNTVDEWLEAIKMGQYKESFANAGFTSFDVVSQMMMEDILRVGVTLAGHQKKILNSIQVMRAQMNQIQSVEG
substance,measurement,setting,value
MMI-0300 (peptide),% activity at 100 µM,ASK1 (h) (human),80%
same,% activity at 100 µM,CK1γ2 (h) (human),123%
same,% activity at 100 µM,DAPK2 (h) (human),32%
same,% activity at 100 µM,EphA7 (h) (human),159%
same,% activity at 100 µM,EphB2 (h) (human),18%
same,% activity at 100 µM,HIPK1 (h) (human),74%
same,% activity at 100 µM,Itk (h) (human),77%
same,% activity at 100 µM,MLCK (h) (human),2%
same,% activity at 100 µM,Met (h) (human),65%
same,% activity at 100 µM,PKG1β (h) (human),50%
same,% activity at 100 µM,PhKγ2 (h) (human),46%
same,% activity at 100 µM,SGK3 (h) (human),10%
same,% activity at 100 µM,[1],56%
